Data: US7732209

Experiments:
Assay in all cases: EMSA
[1] = target: T1, MBP-Tnp dephosphorylated with CIP (Drosophila mauritiana) (UniProt Q7JQ07); conditions: Scatchard, 5 mM MgCl2, 20 mM Tris pH 9, ice
T1 sequence: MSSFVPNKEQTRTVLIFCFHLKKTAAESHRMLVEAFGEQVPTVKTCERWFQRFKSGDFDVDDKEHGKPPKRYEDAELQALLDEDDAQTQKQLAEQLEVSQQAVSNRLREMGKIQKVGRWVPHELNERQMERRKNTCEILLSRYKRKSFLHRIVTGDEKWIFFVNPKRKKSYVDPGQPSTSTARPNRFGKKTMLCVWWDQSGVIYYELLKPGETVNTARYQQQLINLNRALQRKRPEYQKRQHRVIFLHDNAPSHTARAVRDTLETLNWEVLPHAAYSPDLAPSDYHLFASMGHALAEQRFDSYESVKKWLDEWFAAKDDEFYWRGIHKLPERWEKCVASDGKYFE

[2] = target: T2, MBP-Tnp (Mos-1 transposase, phosphorylated, insect cells) (Drosophila mauritiana) (UniProt Q7JQ07); conditions: single Kd; Scatchard; 5 mM MgCl2, 20 mM Tris pH 9, ice
T2 sequence: T1 sequence

[3] = target: T3, Mos-1 transposase (Tnp), rabbit reticulocyte TnT, phosphorylated (Drosophila mauritiana) (UniProt Q7JQ07); conditions: single Kd; Scatchard; 5 mM MgCl2, 20 mM Tris pH 9, ice
T3 sequence: T1 sequence

[4] = target: T4, Mos-1 transposase in vitro translated, dephosphorylated with CIP (Drosophila mauritiana) (UniProt Q7JQ07); conditions: Scatchard, 5 mM MgCl2, 20 mM Tris pH 9, ice
T4 sequence: T1 sequence

[5] = target: T5, Mos-1 mariner transposase (Tnp), produced in bacteria (Drosophila mauritiana) (UniProt Q7JQ07); conditions: CITED (publication submitted), cited from earlier work
T5 sequence: T1 sequence

## Mos-1 ITR 3' (EcoRI/XbaI fragment of pBS(3'))
[1]; Kd1, second Kd (Kd2) 24.69 nM
  Kd: 0.66 nM
[1]; Kd2 (second site)
  Kd: 24.7 nM
[2]
  Kd: 39 nM
[3]
  Kd: 74 nM
[4]; Kd1, second Kd (Kd2) 15.5 nM
  Kd: 1.3 nM
[4]; Kd2 (second site)
  Kd: 15.5 nM
[5]; Kd1, specific ITR 3' binding, Scatchard
  Kd: 0.6 nM
[5]; Kd2, ITR bound as integration target
  Kd: 10 nM
